What all share (assay): cell-based or functional assay
In assay [1] the target is Cfluc-FKBP12, split site at amino acid position 420 of SEQ ID NO: 2 (Photinus pyralis) (UniProt P62942).
Assay [2] deals with Cfluc-FKBP12, split site at amino acid position 455 of SEQ ID NO: 2 (Photinus pyralis) (UniProt P62942).
In assay [3] the target is Cfluc-FKBP12, split site at amino acid position 445 of SEQ ID NO: 2 (Photinus pyralis) (UniProt P62942).
Assay [4] addresses Cfluc-FKBP12, split site at amino acid position 437 of SEQ ID NO: 2 (Photinus pyralis) (UniProt P62942).
Assay [5] has as its target Cfluc (245-550 of SEQ ID NO: 2) (Photinus pyralis, UniProt P08659 245-550 = luciferase).
Assay [6] addresses Cfluc (437-550 of SEQ ID NO: 2) (Photinus pyralis, UniProt P08659 438-550 = luciferase).
For assay [7], the target named is Cfluc (265-550 of SEQ ID NO: 2) (Photinus pyralis, UniProt P08659 265-550 = luciferase).
For assay [8], the target named is T1, Cfluc (500-550 of SEQ ID NO: 2) (Photinus pyralis, UniProt P08659 501-550 = luciferase).
T1 chain: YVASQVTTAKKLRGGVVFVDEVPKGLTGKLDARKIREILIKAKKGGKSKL

Assay [9] concerns the target Cfluc (300-550 of SEQ ID NO: 2) (Photinus pyralis, UniProt P08659 300-550 = luciferase).
The target of assay [10] is Cfluc (445-550 of SEQ ID NO: 2) (Photinus pyralis, UniProt P08659 446-550 = luciferase).

Cfluc-FKBP12, split site at amino acid position 420 of SEQ ID NO: 2 (Photinus pyralis), sequence (P62942 other isoform, or with tags, fused parts or gaps limits assumed): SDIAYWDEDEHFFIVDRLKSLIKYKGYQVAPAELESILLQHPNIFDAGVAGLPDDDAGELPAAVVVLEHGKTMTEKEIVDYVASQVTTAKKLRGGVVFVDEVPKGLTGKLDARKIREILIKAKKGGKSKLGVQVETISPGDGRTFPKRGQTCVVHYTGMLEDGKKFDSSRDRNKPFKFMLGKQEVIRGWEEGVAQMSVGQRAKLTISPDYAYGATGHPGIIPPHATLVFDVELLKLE
Cfluc-FKBP12, split site at amino acid position 455 of SEQ ID NO: 2 (Photinus pyralis), sequence (P62942 other isoform, or with tags, fused parts or gaps limits assumed): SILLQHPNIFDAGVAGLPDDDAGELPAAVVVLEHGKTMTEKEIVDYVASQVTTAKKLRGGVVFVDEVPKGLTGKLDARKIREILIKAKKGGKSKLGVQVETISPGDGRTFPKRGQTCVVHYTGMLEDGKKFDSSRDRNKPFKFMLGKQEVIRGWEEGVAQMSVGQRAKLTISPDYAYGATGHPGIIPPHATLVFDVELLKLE
Cfluc-FKBP12, split site at amino acid position 445 of SEQ ID NO: 2 (Photinus pyralis), sequence (P62942 other isoform, or with tags, fused parts or gaps limits assumed): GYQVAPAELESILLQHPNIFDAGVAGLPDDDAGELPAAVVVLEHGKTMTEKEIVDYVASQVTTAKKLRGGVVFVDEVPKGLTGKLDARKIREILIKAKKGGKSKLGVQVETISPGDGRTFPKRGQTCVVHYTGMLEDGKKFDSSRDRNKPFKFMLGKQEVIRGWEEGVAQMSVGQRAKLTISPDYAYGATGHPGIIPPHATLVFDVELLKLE
Cfluc-FKBP12, split site at amino acid position 437 of SEQ ID NO: 2 (Photinus pyralis), sequence (P62942 other isoform, or with tags, fused parts or gaps limits assumed): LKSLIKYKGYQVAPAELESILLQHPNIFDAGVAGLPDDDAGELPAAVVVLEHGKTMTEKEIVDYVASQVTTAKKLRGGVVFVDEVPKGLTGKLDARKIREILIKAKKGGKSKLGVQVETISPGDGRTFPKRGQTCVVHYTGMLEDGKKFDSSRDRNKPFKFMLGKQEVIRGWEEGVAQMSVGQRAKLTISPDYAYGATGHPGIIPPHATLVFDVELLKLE

In turn, “FRB-Nfluc, split site at amino acid position 420 of SEQ ID NO: 2 (from UniProt P42345 2024-2113)” displayed a firefly luciferase signal upon exposure to rapamycin, fold over the cells not exposed to rapamycin (co-transfected 293T cells) in assay [1] of 10 fold.
For the molecule “FRB-Nfluc, split site at amino acid position 455 of SEQ ID NO: 2 (from UniProt P42345 2024-2113)”, the firefly luciferase signal upon exposure to rapamycin, fold over the cells not exposed to rapamycin (co-transfected 293T cells) in assay [2] was determined as 30 fold.
In turn, “FRB-Nfluc, split site at amino acid position 445 of SEQ ID NO: 2 (from UniProt P42345 2024-2113)” yielded a firefly luciferase signal upon exposure to rapamycin, fold over the cells not exposed to rapamycin (co-transfected 293T cells) in assay [3] of 350 fold.
In turn, “FRB-Nfluc, split site at amino acid position 437 of SEQ ID NO: 2 (from UniProt P42345 2024-2113)” showed a firefly luciferase signal upon exposure to rapamycin, fold over the cells not exposed to rapamycin (co-transfected 293T cells) in assay [4] of 40 fold.

B1: Nfluc (1-475 of SEQ ID NO: 2) (other)
chain: MEDAKNIKKGPAPFYPLEDGTAGEQLHKAMKRYALVPGTIAFTDAHIEVNITYAEYFEMSVRLAEAMKRYGLNTNHRIVVCSENSLQFFMPVLGALFIGVAVAPANDIYNERELLNSMNISQPTVVFVSKKGLQKILNVQKKLPIIQKIIIMDSKTDYQGFQSMYTFVTSHLPPGFNEYDFVPESFDRDKTIALIMNSSGSTGLPKGVALPHRTACVRFSHARDPIFGNQIIPDTAILSVVPFHHGFGMFTTLGYLICGFRVVLMYRFEEELFLRSLQDYKIQSALLVPTLFSFFAKSTLIDKYDLSNLHEIASGGAPLSKEVGEAVAKRFHLPGIRQGYGLTETTSAILITPEGDDKPGGVGKVVPFFEAKVVDLDTGKTLGVNQRGELCVRGPMIMSGYVNNPEATNALIDKDGWLHSDIAYWDEDEHFFIVDRLKSLIKYKGYQVAPAELESILLQHPNIFDAGVAGLPDDD
Take B1: the “average of photon max across six animals, 72 h” value in assay [5] turned out to be 1.1 P/cm^2/sec/sr; in [6] it was 2.1 P/cm^2/sec/sr; in assay [7] it was 1.8 P/cm^2/sec/sr; in [8] it was 0.3 P/cm^2/sec/sr; in assay [9] it was 1.9 P/cm^2/sec/sr; in [10], 0.7 P/cm^2/sec/sr. For the same molecule, the “bioluminescence signal of implanted co-transfected 293T cells in living mice, 24 h” value in assay [5], in assay [7] and in assay [9] was 0.3 P/cm^2/sec/sr in each case. For the same molecule, in assay [5], the “luciferase signal against the combination Nfluc 1-475 / Cfluc 265-550 (cell culture and animal study)” value was found to be 2 fold less.

Source of the values: patent publication US20070161067A1 (STANFORD UNIVERSITY, published 2007).
